Measured values as given in publication PMC11387744 (Communications Biology, 2024).

B1: BCOR^ANK-linker (residues 1461-1635) (domain or fragment, UniProt Q6W2J9 1461-1635, looked up)
chain: NAGETLLQRAARLGYEEVVLYCLENKICDVNHRDNAGYCALHEACARGWLNIVRHLLEYGADVNCSAQDGTRPLHDAVENDHLEIVRLLLSYGADPTLATYSGRTIMKMTHSELMEKFLTDYLNDLQGRNDDDASGTWDFYGSSVCEPDDESGYDVLANPPGPEDQDDDDDAYSD
B2: BCOR^N1591/PCGF1^RAWUL dimer (complex)
chain 1: DDDASGTWDFYGSSVCEPDDESGYDVLANPPGPEDQDDDDDAYSDVFEFEFSETPLLPCYNIQVSVAQGPRNWLLLSDVLKKLKMSSRIFRCNFPNVEIVTIAEAEFYRQVSASLLFSCSKDLEAFNPESKELLDLVEFTNEIQTLLGSSVEWLHPSDLASDNYW
chain 2: LPFSSFDHSKAHYYRYDEQLNLCLERLSSGKDKNKSVLQNKYVRCSVRAEVRHLRRVLCHRLMLNPQHVQLLFDNEVLPDHMTMKQIWLSRWFGKPSPLLLQYSVK
B3: BCOR^N1624/PCGF1^RAWUL dimer (complex)
chain 1: EDQDDDDDAYSDVFEFEFSETPLLPCYNIQVSVAQGPRNWLLLSDVLKKLKMSSRIFRCNFPNVEIVTIAEAEFYRQVSASLLFSCSKDLEAFNPESKELLDLVEFTNEIQTLLGSSVEWLHPSDLASDNYW
chain 2: B2 chain 2
B4: BCOR^N1612/PCGF1^RAWUL dimer (complex)
chain 1: SGYDVLANPPGPEDQDDDDDAYSDVFEFEFSETPLLPCYNIQVSVAQGPRNWLLLSDVLKKLKMSSRIFRCNFPNVEIVTIAEAEFYRQVSASLLFSCSKDLEAFNPESKELLDLVEFTNEIQTLLGSSVEWLHPSDLASDNYW
chain 2: B2 chain 2
B5: BCOR^N1594/PCGF1^RAWUL dimer (complex)
chain 1: ASGTWDFYGSSVCEPDDESGYDVLANPPGPEDQDDDDDAYSDVFEFEFSETPLLPCYNIQVSVAQGPRNWLLLSDVLKKLKMSSRIFRCNFPNVEIVTIAEAEFYRQVSASLLFSCSKDLEAFNPESKELLDLVEFTNEIQTLLGSSVEWLHPSDLASDNYW
chain 2: B2 chain 2
B6: BCOR^N1607/PCGF1^RAWUL dimer (complex)
chain 1: EPDDESGYDVLANPPGPEDQDDDDDAYSDVFEFEFSETPLLPCYNIQVSVAQGPRNWLLLSDVLKKLKMSSRIFRCNFPNVEIVTIAEAEFYRQVSASLLFSCSKDLEAFNPESKELLDLVEFTNEIQTLLGSSVEWLHPSDLASDNYW
chain 2: B2 chain 2

Each binder was assayed against T1, KDM2B^F-box-LRRs/SKP1 dimer (UniProt Q8NHM5 1059-1336; P63208 2-163) (assay: ITC).
T1 sequence (Q8NHM5 1059-1336, chain 1 of 2): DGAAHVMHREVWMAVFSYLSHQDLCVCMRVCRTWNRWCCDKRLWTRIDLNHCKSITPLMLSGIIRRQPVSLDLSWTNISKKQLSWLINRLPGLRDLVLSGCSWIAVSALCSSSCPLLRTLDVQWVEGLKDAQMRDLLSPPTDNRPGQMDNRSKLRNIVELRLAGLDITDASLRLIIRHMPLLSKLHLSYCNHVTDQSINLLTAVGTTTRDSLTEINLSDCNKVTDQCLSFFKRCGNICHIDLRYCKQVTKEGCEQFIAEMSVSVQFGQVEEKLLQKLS
T1 sequence (P63208 2-163, chain 2 of 2): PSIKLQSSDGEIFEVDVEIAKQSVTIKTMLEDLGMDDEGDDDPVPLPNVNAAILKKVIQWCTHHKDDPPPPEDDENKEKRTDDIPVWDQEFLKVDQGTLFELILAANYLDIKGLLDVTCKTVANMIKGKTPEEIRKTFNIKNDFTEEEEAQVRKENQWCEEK

Row | Kd | Binder
1 | 6350 nM | B1

Target: T1, KDM2B^F-box-LRRs/SKP1 dimer
Assay: ITC
Remark: another data set of the same source

Row | Kd | Binder
2 | 240 nM | B2
3 | 5930 nM | B3
4 | 850 nM | B4
5 | 250 nM | B5
6 | 270 nM | B6
